Target: Human IL-21 receptor on Baf3/KZ134/huIL-21R cells (human) (UniProt Q9HBE5)
Assay: cell-based or functional assay

Human IL-21 receptor on Baf3/KZ134/huIL-21R cells (human), sequence (Q9HBE5 20-538): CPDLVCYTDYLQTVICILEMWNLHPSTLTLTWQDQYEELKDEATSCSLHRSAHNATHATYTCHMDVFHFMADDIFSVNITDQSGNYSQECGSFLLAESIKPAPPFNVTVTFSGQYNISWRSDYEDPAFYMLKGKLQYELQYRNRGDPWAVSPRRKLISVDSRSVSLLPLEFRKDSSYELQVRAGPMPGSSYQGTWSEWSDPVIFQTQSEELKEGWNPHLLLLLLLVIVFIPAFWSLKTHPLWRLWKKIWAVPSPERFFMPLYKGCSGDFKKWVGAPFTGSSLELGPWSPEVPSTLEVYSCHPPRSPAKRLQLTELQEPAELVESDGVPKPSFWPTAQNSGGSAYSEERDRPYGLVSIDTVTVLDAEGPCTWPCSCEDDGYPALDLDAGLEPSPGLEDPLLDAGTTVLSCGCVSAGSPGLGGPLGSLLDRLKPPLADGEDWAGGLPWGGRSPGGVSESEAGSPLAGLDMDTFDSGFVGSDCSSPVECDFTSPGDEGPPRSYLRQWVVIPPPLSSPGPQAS

Recombinant rat IL-21 (from UniProt A3QPB9 18-146) (ligand)
EC90 in STAT-Luciferase assay: 1.08 nM
